According to paper PMC3900686 (2014):

Columns and labels:
Test in all cases: ITC; LCMT-1 preloaded with SAH
[1] = target: PP2A catalytic Cα-subunit (free PP2Ac) ( ("mammalian PP2Ac"), UniProt P67775 1-309)
[2] = target: methylated PP2A core enzyme (methylated AC heterodimer) ( |  ("mammalian …, UniProt P30153 1-589)); P67775 1-309, carboxyl methylation of the last leucine residue (Leu-309))
[3] = target: PP2A core enzyme (A–C heterodimer), unmethylated ( |  ("mammalian …, UniProt P30153 1-589; P67775 1-309)
PP2A core enzyme (A–C heterodimer), unmethylated ( | , sequence (P30153 whole entry, chain 1 of 2): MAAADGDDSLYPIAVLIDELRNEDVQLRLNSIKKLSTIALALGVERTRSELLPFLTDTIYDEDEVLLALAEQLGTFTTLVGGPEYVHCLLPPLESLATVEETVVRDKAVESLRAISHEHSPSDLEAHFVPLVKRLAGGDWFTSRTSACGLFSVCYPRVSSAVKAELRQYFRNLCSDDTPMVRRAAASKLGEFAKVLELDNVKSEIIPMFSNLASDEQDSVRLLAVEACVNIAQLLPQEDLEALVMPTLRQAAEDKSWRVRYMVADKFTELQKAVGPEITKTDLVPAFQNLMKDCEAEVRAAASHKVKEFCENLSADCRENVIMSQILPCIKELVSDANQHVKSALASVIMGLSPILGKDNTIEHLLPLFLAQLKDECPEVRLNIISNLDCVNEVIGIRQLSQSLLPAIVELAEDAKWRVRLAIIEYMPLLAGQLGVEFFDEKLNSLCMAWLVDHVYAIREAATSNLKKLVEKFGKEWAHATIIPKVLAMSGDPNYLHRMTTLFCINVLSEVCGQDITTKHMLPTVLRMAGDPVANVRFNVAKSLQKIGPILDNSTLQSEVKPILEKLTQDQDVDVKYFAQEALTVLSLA
PP2A core enzyme (A–C heterodimer), unmethylated ( | , sequence (P67775 whole entry, chain 2 of 2): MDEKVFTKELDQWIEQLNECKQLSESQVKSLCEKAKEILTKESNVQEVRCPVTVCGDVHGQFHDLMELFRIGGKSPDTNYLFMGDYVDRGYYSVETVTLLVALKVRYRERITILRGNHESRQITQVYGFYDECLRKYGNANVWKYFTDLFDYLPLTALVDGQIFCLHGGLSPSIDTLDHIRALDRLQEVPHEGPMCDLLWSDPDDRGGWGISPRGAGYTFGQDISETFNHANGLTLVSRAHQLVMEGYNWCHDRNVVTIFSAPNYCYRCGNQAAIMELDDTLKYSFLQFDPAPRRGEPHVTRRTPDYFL

PP2A catalytic Cα-subunit (free PP2Ac), sequence (P67775 whole entry): as the sequence (P67775 whole entry, chain 2 of 2) above
methylated PP2A core enzyme (methylated AC heterodimer) ( | , sequence (P30153 whole entry, chain 1 of 2): as the sequence (P30153 whole entry, chain 1 of 2) above
methylated PP2A core enzyme (methylated AC heterodimer) ( | , sequence (P67775 whole entry, chain 2 of 2): as the sequence (P67775 whole entry, chain 2 of 2) above

B1: PP2A-specific leucine carboxyl methyltransferase 1 (LCMT-1) (enzyme)
chain: MATRQRESSITSCCSTSSCDADDEGVRGTCEDASLCKRFAVSIGYWHDPYIQHFVRLSKERKAPEINRGYFARVHGVSQLIKAFLRKTECHCQIVNLGAGMDTTFWRLKDEDLLPSKYFEVDFPMIVTRKLHSIKCKPPLSSPILELHSEDTLQMDGHILDSKRYAVIGADLRDLSELEEKLKKCNMNTQLPTLLIAECVLVYMTPEQSANLLKWAANSFERAMFINYEQVNMGDRFGQIMIENLRRRQCDLAGVETCKSLESQKERLLSNGWETASAVDMMELYNRLPRAEVSRIESLEFLDEMELLEQLMRHYCLCWATKGGNELGLKEITY
B1 was tested, and the Kd [1] was 0.56 µM, the Kd [2] was 0.63 µM and the Kd [3] was 0.14 µM.
